The source of these data is article doi:10.1101/2025.08.13.670189.

Holding throughout (assay): EMSA
(In general: Mobility shift assays separate free from complexed probe on a gel.)

For series [1], the target named is T1, LigR2 (Pseudomonas putida KT2440) (UniProt Q88JP8).
T1 sequence: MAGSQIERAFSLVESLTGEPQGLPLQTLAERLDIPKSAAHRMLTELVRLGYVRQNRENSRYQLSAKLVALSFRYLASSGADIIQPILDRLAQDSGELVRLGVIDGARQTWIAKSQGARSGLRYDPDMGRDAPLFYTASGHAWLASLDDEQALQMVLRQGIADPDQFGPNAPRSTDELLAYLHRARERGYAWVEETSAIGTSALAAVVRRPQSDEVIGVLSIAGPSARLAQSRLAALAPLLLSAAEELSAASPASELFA

The target of series [2] is T2, LigR1 (Pseudomonas putida KT2440) (UniProt Q88JP0).
T2 sequence: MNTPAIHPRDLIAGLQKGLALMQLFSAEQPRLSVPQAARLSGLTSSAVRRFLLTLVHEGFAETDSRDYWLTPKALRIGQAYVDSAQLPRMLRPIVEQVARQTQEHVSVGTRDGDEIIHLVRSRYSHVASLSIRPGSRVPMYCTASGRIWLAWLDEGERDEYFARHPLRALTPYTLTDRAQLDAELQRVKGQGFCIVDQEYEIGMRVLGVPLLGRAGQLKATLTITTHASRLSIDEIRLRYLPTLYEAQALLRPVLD

Series [3] has as its system LigR1 (Pseudomonas putida KT2440).
The test system of series [4] is LigR2 (Pseudomonas putida KT2440).

A word on the Kd: it is the free concentration of one partner at which half of the binding sites on the other are occupied at equilibrium, for simple one-to-one binding. Low values mean a tighter complex, high ones a looser complex. “GGTAATGCTGCCGGCCCATGATGCCGGCGCCAATCAAGGCAATACGAAGGGGTGCGTTCAACAGCCTGTCCTCTTGTCATTGTTGTTATGAAATTCTGAAACCGGGTTCCAAAATTCATACTCGACAATTTAGAACCAAGTTCAGCTTTTCAGAAGAACGGGCGCAACAGACTGTGCGGTAATCGACCGGAATATTCCCTCAGGCAAACAGCTCGCTGGCGGGACTGGCCGCCGACAGCTCTTCTGC (double strand) [lig2 intergenic region probe]” had a Kd in series [1] of 150 nM. Moreover, the binding result in series [2] is “no binding”.

lig1 intergenic region probe: the Kd in series [3] was 220 nM; in series [4], 21600 nM.

In series [4], lig2 intergenic region probe displayed a dissociation constant (Kd) of 150 nM.
